Consider five molecules from US20250388652A1 (BEIJING WISDOMAB BIOTECHNOLOGY, published 2025).

Changes are numbered by the printed parent chain.

Assay [1] has as its target T1, F protein mutant RSV-DS-Cav1-A with a DS-Cav1 structure before fusion (respiratory syncytial virus subtype A, …, UniProt P03420 26-513).
For assay [2], the target named is T2, F protein of strain 18537 of RSV subtype B (respiratory syncytial virus subtype B, …, UniProt P13843 26-574). In words: cell-based or functional assay.
For assay [3], the target named is T1, F protein mutant RSV-DS-Cav1-A with a …. This is another data set of the same source.
Assay [4] addresses T3, F protein of strain A2 of RSV subtype A (respiratory syncytial virus subtype A, …, UniProt P03420 26-574). In words: cell-based or functional assay.
The target of assay [5] is T2, F protein of strain 18537 of RSV …. As to the kind of experiment: cell-based or functional assay. This is another data set of the same source.
Assay [6] has as its target T3, F protein of strain A2 of RSV subtype A. In words: cell-based or functional assay. The source holds these as a separate data set.

B1: anti-RSV monoclonal antibody Clesrovimab (RB1) (antibody, V domains shown)
VH: EVQLVESGGGLVRPGRSLRLSCTVSGFSFDDSAMSWVRQAPGKGLEWISFIKSKTYGGTKEYAASVKGRFTISRDDSKNIAYLQMNSLKTEDTAVYYCTRGAPYGGNSDYYYGLDVWGQGTTVTVSS
VL: DIQMTQSPSSLSASVGDRVTITCRTSQDVRGALAWYQQKPGKAPKLLIFDASSLETGVPSRFSGSGSGTVFTLTISSLQPEDFAAYYCQQFLDFPFTFGQGTRLEIK
The Kd is the constant that tells how readily two partners part at equilibrium. Broadly, the koff is the first-order rate constant of dissociation. A lower koff goes with a long-lived complex. The kon is the second-order rate constant of association. A lower kon goes with slow association. Take B1: in assay [1], the equilibrium dissociation constant (Kd) turned out to be 17.6 nM, the koff was 0.000351 s⁻¹ and the kon was determined as 20000 M⁻¹ s⁻¹. Also, in assay [2], the “IC50(nM), inhibition of strain RSV/18537 infection of Hep-2 cells (RFFIT)” value amounted to 0.088 nM.

B2: recombinant monoclonal antibody R3B1h1 against F protein of RSV (human IgG1-K version) (antibody, V domains shown)
VH: QVQLVQSGAEVKKPGSSVKVSCKASGGLLEDYIINWVRQAPGQGLEWMGGIIPVLGTVHYGPKFQGRVTITADESTSTAYMELSSLRSEDTAVYYCATETAIVVTESYRPHFFDNWGQGTLVTVSS
VL: DIQMTQSPSSLSASVGDRVTITCQASQDIVNYLNWYQQKPGKAPKLLIYVASNLETGVPSRFSGSGSGTDFTFTISSLQPEDIATYYCQEFAGLALNFGGGTKVEIKR
As usually defined, the EC50 (read off the curve) is the concentration giving half of the maximal effect. Low readings indicate a more potent agent, high ones a less potent agent. In assay [1], B2 yielded a Kd of 0.621 nM, a koff of 2.37e-05 s⁻¹ and a kon of 31800 M⁻¹ s⁻¹. Moreover, the “EC50 (read off the curve)” value in assay [3] is roughly 0.1 nM. Also, in assay [4], the “neutralisation activity against RSV/A2 relative to Clesrovimab, by IC50” value is roughly 12 fold; the “neutralisation activity against RSV/A2 relative to Nirsevimab, by IC50” value is roughly 5 fold; the “neutralisation activity against RSV/A2 relative to Palivizumab, by IC50” value was roughly 410 fold. For the same molecule, in assay [5], the “neutralisation activity against RSV/18537 relative to Clesrovimab, by IC50” value is roughly 12 fold; the “neutralisation activity against RSV/18537 relative to Nirsevimab, by IC50” value is roughly 18 fold; the “neutralisation activity against RSV/18537 relative to Palivizumab, by IC50” value was roughly 545 fold. Also, the “IC50(nM), inhibition of RSV/A2 strain infection of Hep-2 cells (RFFIT)” value in assay [6] was 0.00516 nM.

B3: recombinant monoclonal antibody R22B1 against F protein of RSV (human IgG1-K version) (antibody, V domains shown)
VH: QVQLVQSGAEVKKPGSSVMVSCQASGDPLQNYIINWVRQAPGQGPEWMGAIIPALGSAHYGPKFQGRVTITADESTDTAYMELSSLRSEDTAMYYCATETAVIISESYLPHFFDNWGQGTLVTVSS
VL: B2 VL with S14A, T72S, F73L, I83V, F91Y, A92D, G93S, N97A
With B3, in assay [1], the Kd is 0.354 nM, the koff came to 1.41e-05 s⁻¹ and the kon was determined as 39900 M⁻¹ s⁻¹. The “IC50(nM), inhibition of strain RSV/18537 infection of Hep-2 cells (RFFIT)” value in assay [2] was 0.111 nM.

B4: anti-RSV monoclonal antibody Nirsevimab (MEDI8897) (antibody, V domains shown)
VH: B2 VH with K19M, K23Q, L45P, S77D, V93M, I102L, T105S, S107T, R109L, F112Y
VL: DIQMTQSPSSLSAAVGDRVTITCQASQDIVNYLNWYQQKPGKAPKLLIYVASNLETGVPSRFSGSGSGTDFSLTISSLQPEDVATYYCQQYDNLPLTFGGGTKVEIK
In the case of B4, in assay [1], the Kd stood at 0.477 nM, the koff turned out to be 1.5e-05 s⁻¹ and the on-rate constant (kon) amounted to 31500 M⁻¹ s⁻¹. The “IC50(nM), inhibition of strain RSV/18537 infection of Hep-2 cells (RFFIT)” value in assay [2] came to 0.139 nM.

B5: anti-RSV monoclonal antibody Palivizumab (Hu1129) (antibody, V domains shown)
VH: QVTLRESGPALVKPTQTLTLTCTFSGFSLSTSGMSVGWIRQPPGKALEWLADIWWDDKKDYNPSLKSRLTISKDTSKNQVVLKVTNMDPADTATYYCARSMITNWYFDVWGAGTTVTVSS
VL: DIQMTQSPSTLSASVGDRVTITCKCQLSVGYMHWYQQKPGKAPKLWIYDTSKLASGVPSRFSGSGSGTEFTLTISSLQPDDFATYYCFQGSGYPFTFGGGTKLEIK
Regarding B5, in assay [1], the affinity, expressed as Kd, was 2.6 nM; the koff was determined as 8.2e-05 s⁻¹; the kon was found to be 31600 M⁻¹ s⁻¹. In addition, in assay [2], the “IC50(nM), inhibition of strain RSV/18537 infection of Hep-2 cells (RFFIT)” value was 4.15 nM.
